From publication PMC5016095 (2016)

Experiments:
α-synuclein S129E = α-synuclein S129E (Homo sapiens, UniProt P37840); assay: fluorescence spectroscopy
α-synuclein (oligomeric) = α-synuclein (oligomeric) (Homo sapiens, UniProt P37840, oligomeric, pseudo-wildtype tryptophan mutant); assay: fluorescence spectroscopy

Kd (α-synuclein S129E): ~5 µM
Kd (α-synuclein (oligomeric)): ~5 µM
B1: TOM20 C-terminal cytosolic fragment (protein)
chain: DRKRRSDPNFKNRLRERRKKQKLAKERAGLSKLPDLKDAEAVQKFFLEEIQLGEELLAQGDYEKGVDHLTNAIAVCGQPQQLLQVLQQTLPPPVFQMLLTKLPTISQRIVSAQSLAEDDVE
